{"source": "patent US20060115876A1", "key": {"[1]": {"biological_target": "von Willebrand factor (vWF) (UniProt P04275)", "assay": "vWF binding ELISA divided by total antigen ELISA, relative to BDD"}, "[2]": {"biological_target": "von Willebrand factor (vWF) (UniProt P04275)", "assay": "vWF binding ELISA, FVIII bound to vWf in severe hemophilic plasma"}, "[3]": {"biological_target": "von Willebrand factor (vWF) (UniProt P04275)", "assay": "vWF binding ELISA divided by total antigen ELISA, relative to starting KG-2"}, "[4]": {"biological_target": "von Willebrand factor (vWF) (UniProt P04275)", "assay": "vWF binding ELISA divided by total antigen ELISA"}, "[5]": {"biological_target": "von Willebrand factor (vWF) (UniProt P04275)", "assay": "vWF binding ELISA (FVIII bound to vWf in severe hemophilic plasma, captured on anti-vWf mAb) divided by total antigen ELISA, relative to BDD"}, "[6]": {"biological_target": "von Willebrand factor (vWF) (UniProt P04275)", "assay": "vWF binding ELISA value divided by total antigen ELISA value"}}}
{"substance": "PEG2-33 kD PEG (L491C BDD FVIII PEGylated with 33 kD PEG-maleimide) (from UniProt P00451 20-2351)", "values": [{"measurement": "percent specific activity vWF/TAE relative to BDD", "setting": "[1]", "value": 59, "unit": "%"}]}
{"substance": "wildtype full length FVIII (KG-2) (from UniProt P00451 20-2351)", "values": [{"measurement": "vWF ELISA (FVIII bound to vWf)", "setting": "[2]", "value": 0.42, "unit": "µg/mL"}, {"measurement": "% Start (vWF/TAE)", "setting": "[3]", "value": 100, "unit": "%"}, {"measurement": "vWF/TAE (ratio (vWF ELISA ug/mL / TAE ug/mL))", "setting": "[4]", "value": 0.32}]}
{"substance": "PEG6-33 kD PEG (K1808C BDD FVIII PEGylated with 33 kD PEG-maleimide) (from UniProt P00451 20-2351)", "values": [{"measurement": "percent specific activity vWF/TAE relative to BDD", "setting": "[1]", "value": 90, "unit": "%"}]}
{"substance": "B domain deleted FVIII (BDD) (from UniProt P00451 20-2351)", "values": [{"measurement": "percent specific activity vWF/TAE relative to BDD", "setting": "[5]", "value": 100, "unit": "%"}, {"measurement": "vWF/TAE (specific vWF binding activity)", "setting": "[6]", "value": 1, "unit": "vWF/TAE"}]}
{"substance": "PEG2 mutein (L491C BDD FVIII) (from UniProt P00451 20-2351)", "values": [{"measurement": "percent specific activity vWF/TAE relative to BDD", "setting": "[1]", "value": 138, "unit": "%"}]}
{"substance": "KG-2-22 kD PEG (wildtype full length FVIII PEGylated with 22 kD PEG) (from UniProt P00451 20-2351)", "values": [{"measurement": "vWF ELISA (FVIII bound to vWf)", "setting": "[2]", "value": 0.19, "unit": "µg/mL"}, {"measurement": "% Start (vWF/TAE)", "setting": "[3]", "value": 94, "unit": "%"}, {"measurement": "vWF/TAE (ratio (vWF ELISA ug/mL / TAE ug/mL))", "setting": "[4]", "value": 0.3}]}
{"substance": "PEG6 mutein (K1808C BDD FVIII) (from UniProt P00451 20-2351)", "values": [{"measurement": "percent specific activity vWF/TAE relative to BDD", "setting": "[1]", "value": 100, "unit": "%"}]}
{"substance": "KG-2-30 kD PEG (wildtype full length FVIII PEGylated with 30 kD PEG) (from UniProt P00451 20-2351)", "values": [{"measurement": "vWF ELISA (FVIII bound to vWf)", "setting": "[2]", "value": 0.19, "unit": "µg/mL"}, {"measurement": "% Start (vWF/TAE)", "setting": "[3]", "value": 100, "unit": "%"}, {"measurement": "vWF/TAE (ratio (vWF ELISA ug/mL / TAE ug/mL))", "setting": "[4]", "value": 0.32}]}
{"substance": "PEG2-12 kD PEG (L491C BDD FVIII PEGylated with 12 kD PEG-maleimide) (from UniProt P00451 20-2351)", "values": [{"measurement": "percent specific activity vWF/TAE relative to BDD", "setting": "[1]", "value": 71, "unit": "%"}]}
{"substance": "PEG2-5 kD PEG (L491C BDD FVIII PEGylated with 5 kD PEG-maleimide) (from UniProt P00451 20-2351)", "values": [{"measurement": "percent specific activity vWF/TAE relative to BDD", "setting": "[1]", "value": 125, "unit": "%"}]}
{"substance": "PEG2-22 kD PEG (L491C BDD FVIII PEGylated with 22 kD PEG-maleimide) (from UniProt P00451 20-2351)", "values": [{"measurement": "percent specific activity vWF/TAE relative to BDD", "setting": "[1]", "value": 87, "unit": "%"}]}
{"substance": "PEG2-43 kD PEG (L491C BDD FVIII PEGylated with 43 kD PEG-maleimide) (from UniProt P00451 20-2351)", "values": [{"measurement": "percent specific activity vWF/TAE relative to BDD", "setting": "[1]", "value": 57, "unit": "%"}]}
{"substance": "PEG2 red (PEG2 mutein treated with reductant followed by removal of reductant) (from UniProt P00451 20-2351)", "values": [{"measurement": "percent specific activity vWF/TAE relative to BDD", "setting": "[1]", "value": 98, "unit": "%"}]}
